Reference: publication PMC9169775, “Structural conservation among variants of the SARS-CoV-2 spike postfusion bundle” (Proceedings of the National Academy of Sciences of the …, 2022)

Target: the molecule itself
Experiment: SDS-PAGE with or without boiling (SDS-resistant oligomer); purified scaffolded HR1HR2 bundle and scaffold alone, with or without boiling

B1: Dps4 from Nostoc punctiforme (NpDps4), scaffold alone (natural protein)
chain: ETQTLLRNFGNVYDNPVLLDRSVTAPVTEGFNVVLASFQALYLQYQKHHFVVEGSEFYSLHEFFNESYNQVQDHIHEIGERLDGLGGVPVATFSKLAELTCFEQESEGVYSSRQMVENDLAAEQAIIGVIRRQAAQAESLGDRGTRYLYEKILLKTEERAYHLSHFLAKDSLTLGFVQAA
notes: Dps4 from Nostoc punctiforme (NpDps4); Construct details in SI Appendix, Supplementary Notes; also called the scaffold alone; source: E. coli BL21(DE3), purified (Ni-NTA, SEC); copies: 12
  stoichiometry N: 12
